5 molecules from US20200308299A1, “ANTI-GPC-1 ANTIBODY” (National University Corporation Kochi University, priority 2017, published 2020) can be followed below.

One experiment deals with TE14 cells. The experiment in a line: ADC assay combining anti-GPC-1 antibody and MMAF binding secondary antibody, TE14 cells. Type of experiment: cell-based. As to conditions: primary antibody plus MMAF secondary antibody. The procedure:
FIG. 1 depicts a schematic diagram of an ADC used in an assay. This Example used a secondary antibody (MORADEC) to the anti-GPC1 antibody made in Example 1, to which an anticancer agent (MMAF) was bound via a linker.
2000 TE14 cells were added to a 96-well plate at 80 μl. The cells were cultured overnight at 37° C. in a 5% CO2 incubator. The next day, 10 μl of an anticancer agent bound secondary antibody and 10 μl of a primary antibody concentrated 10-fold relative to the final concentration was added to each well, so that the total amount was 100 μl. The cells were cultured for 6 days at 37° C. in a 5% CO2 incubator. The cell viability was measured by using a CellTiter-Glo Luminescent Cell Viability Assay reagent to detect the amount of ATP. RPMI1640+10% FBS+1% PS was used as the medium. The final concentrations of the primary antibody were 0, 0.004, 0.0156, 0.0625, 0.25, and 1.0 nM. 2 μg/ml of Fab-aMFc-CL-MMAF (model number: AM202AF-50, Moradec) was used as the secondary antibody.

The next experiment deals with DU145 cells. Put plainly: ADC assay combining anti-GPC-1 antibody and MMAF binding secondary antibody in DU145 cells. Type of experiment: cell-based. The conditions noted are these: primary antibody plus MMAF secondary antibody, 3 days. On the procedure: 2000 DU145 cells were added to a 96-well plate at 80 μl. The cells were cultured overnight at 37° C. in a 5% CO2 incubator. The next day, 10 μl each of anticancer agent binding secondary antibody (2 μg/ml) and primary antibody concentrated 10-fold relative to the final concentration was added to each well, so that the total amount was 100 μl. The cells were cultured for 3 days at 37° C. in a 5% CO2 incubator. The cell viability was measured by using a CellTiter-Glo Luminescent Cell Viability Assay reagent to detect the amount of ATP. RPMI1640+10% FBS+1% PS was used as the medium. The final concentrations of the primary antibodies were […]. 2 μg/ml of Fab-aMFc-CL-MMAF (model number AM202AF-50, Moradec) was used as the secondary antibody. The EC50 value was analyzed with GraphPad Prism 6. The same experiment was conducted using 4000 MDA-MB231 cells as the control.

B1: clone 01a026: anti-human Glypican-1 antibody, heavy chain SEQ ID NO: 146, light chain SEQ ID NO: 148 (antibody)
heavy: MKHLWFFLLLVAAPRWVLSQVHLQQSGAELVRPGTSVKMSCKAAGYTFTNYWIGWVKQRPGHGLEWIGDIYPGGGYTHYNEKFKGKATLTADTSSSTAYMQLSSLTSEDSAIYYCARERVYYDGSRFFDVWGAGTTVTVSSAKTTAPSVYPLAPVCGDTTGSSVTLGCLVKGYFPEPVTLTWNSGSLSSGVHTFPAVLQSDLYTLSSSVTVTSSTWPSQSITCNVAHPASSTKVDKKIEPRGPTIKPCPPCKCPAPNLLGGPSVFIFPPKIKDVLMISLSPIVTCVVVDVSEDDPDVQISWFVNNVEVHTAQTQTHREDYNSTLRVVSALPIQHQDWMSGKEFKCKVNNKDLPAPIERTISKPKGSVRAPQVYVLPPPEEEMTKKQVTLTCMVTDFMPEDIYVEWTNNGKTELNYKNTEPVLDSDGSYFMYSKLRVEKKNWVERNSYSCSVVHEGLHNHHTTKSFSRTPGK
light: MRLLAQLLGLLMLWVPGSSGDIVMSQSPKFLPVSAGDRVTMTCKASQSVGNNVAWYQQKPGQSPKLLIYYASNRYTGVPDRFTGSGSGTDFTFTISSVQVEDLAVYFCQQHYSSPWTFGGGTKLEIKRADAAPTVSIFPPSSEQLTSGGASVVCFLNNFYPKDINVKWKIDGSERQNGVLNSWTDQDSKDSTYSMSSTLTLTKDEYERHNSYTCEATHKTSTSPIVKSFNRNEC
Regarding B1, the “EC50 values against TE14 cells” value with TE14 cells is on record as “excellent EC50 values”. In addition, the “EC50 values against DU145 cells” value in the experiment with DU145 cells is reported as “excellent EC50 values”.

B2: clone 01a030: anti-human Glypican-1 antibody, heavy chain SEQ ID NO: 154, light chain SEQ ID NO: 156 (antibody)
heavy: MKHLWFFLLLVAAPRWVLSQVQLQQSGAELVRPGTSVKMSCKAAGYTFTNYWIGWVKQRPGHGLEWIGDIYPGGGYTHYNEKFKGKATLTADTSSSTAYMQLSSLTSEDSAIYYCARERVYYDGSRYFDVWGAGTTVTVSSAKTTAPSVYPLAPVCGDTTGSSVTLGCLVKGYFPEPVTLTWNSGSLSSGVHTFPAVLQSDLYTLSSSVTVTSSTWPSQSITCNVAHPASSTKVDKKIEPRGPTIKPCPPCKCPAPNLLGGPSVFIFPPKIKDVLMISLSPIVTCVVVDVSEDDPDVQISWFVNNVEVHTAQTQTHREDYNSTLRVVSALPIQHQDWMSGKEFKCKVNNKDLPAPIERTISKPKGSVRAPQVYVLPPPEEEMTKKQVTLTCMVTDFMPEDIYVEWTNNGKTELNYKNTEPVLDSDGSYFMYSKLRVEKKNWVERNSYSCSVVHEGLHNHHTTKSFSRTPGK
light: MRLLAQLLGLLMLWVPGSSGDIKMTQSPKFLPVSAGDRVTMTCKASQSVGNNVAWYQQKPGQSPKLLIYYASNRYTGVPDRFTGSGSGTDFTFTISSVQVEDLAVYFCQQHYSSPWTFGGGTKLEIKRADAAPTVSIFPPSSEQLTSGGASVVCFLNNFYPKDINVKWKIDGSERQNGVLNSWTDQDSKDSTYSMSSTLTLTKDEYERHNSYTCEATHKTSTSPIVKSFNRNEC
Regarding B2, the “EC50 values against TE14 cells” value in the experiment with TE14 cells was “excellent EC50 values”. The “EC50 values against DU145 cells” value with DU145 cells was “excellent EC50 values”.

B3: clone 01a016: anti-human Glypican-1 antibody, heavy chain SEQ ID NO: 134, light chain SEQ ID NO: 136 (antibody)
heavy: MKHLWFFLLLVAAPRWVLSQVHLQQSGPELVKPGASVKISCKASGYTFTDYYINWVKQKPGQGLEWIGYIDPYNDGSKYNEKFKGKATLTSDKSSSTAYMELSSLTSEDSAVYYCARTPYYSFYSYGFYFDYWGQGTTLTVSSAKTTAPSVYPLAPVCGDTTGSSVTLGCLVKGYFPEPVTLTWNSGSLSSGVHTFPAVLQSDLYTLSSSVTVTSSTWPSQSITCNVAHPASSTKVDKKIEPRGPTIKPCPPCKCPAPNLLGGPSVFIFPPKIKDVLMISLSPIVTCVVVDVSEDDPDVQISWFVNNVEVHTAQTQTHREDYNSTLRVVSALPIQHQDWMSGKEFKCKVNNKDLPAPIERTISKPKGSVRAPQVYVLPPPEEEMTKKQVTLTCMVTDFMPEDIYVEWTNNGKTELNYKNTEPVLDSDGSYFMYSKLRVEKKNWVERNSYSCSVVHEGLHNHHTTKSFSRTPGK
light: MRLLAQLLGLLMLWVPGSSGDIVLTQSPASLAVSLGQRATISCRASKSVSTSSYSYMHWYQQKPGQPPKLLIKYASYLESGVPARFSGSGSGTDFTLNIHPVEEEDAATYYCQHSREFPLTFGAGTKLELKRADAAPTVSIFPPSSEQLTSGGASVVCFLNNFYPKDINVKWKIDGSERQNGVLNSWTDQDSKDSTYSMSSTLTLTKDEYERHNSYTCEATHKTSTSPIVKSFNRNEC
B3: in the experiment with TE14 cells, the “EC50 values against TE14 cells” value is listed as “excellent EC50 values”. The “EC50 values against DU145 cells” value with DU145 cells was “excellent EC50 values”.

B4: clone 4: anti-Glypican-1 antibody, heavy chain SEQ ID NO: 198, light chain SEQ ID NO: 200; sequence from WO 2015/098112 (antibody)
heavy: AVTLDESGGGLQTPGRALSLVCKASGFTFSRYAMYWVRQAPGKGLEFVAGIGNTGRYTGYGSAVKGRATISRDSGQSTVRLQLNNLRAEDTGNYYCAKSVSPYCCDAADIDAWGHGTEVIVSS
light: ASTQPSSVSANPGETVKITCSGGSSGYAYGWYQQKSPGSAPVTLLYSNNNRPSDIPSRFSGSKSGSTATLTITGVQAEDEAVYFCGSVDSSSYAGIFGAGTTLTVL
On to B4, for which the “EC50 values against TE14 cells” value in the experiment with TE14 cells is “excellent EC50 values”. In addition, the “EC50 values against DU145 cells” value in the experiment with DU145 cells is recorded as “excellent EC50 values”.

B5: clone 01a009: anti-human Glypican-1 antibody, heavy chain SEQ ID NO: 150, light chain SEQ ID NO: 152 (antibody)
heavy: MKHLWFFLLLVAAPRWVLSEVQLQQSGPELVKPGASVEISCKASGYSFTGYFMNWVKQSQGKSLEWIGRINPDNGDIFYNQKFKGKATLTVDKSSSTAHMELRSLTSEDSAVYYCARSWNWYFDVWGAGTTVTVSSAKTTAPSVYPLAPVCGDTTGSSVTLGCLVKGYFPEPVTLTWNSGSLSSGVHTFPAVLQSDLYTLSSSVTVTSSTWPSQSITCNVAHPASSTKVDKKIEPRGPTIKPCPPCKCPAPNLLGGPSVFIFPPKIKDVLMISLSPIVTCVVVDVSEDDPDVQISWFVNNVEVHTAQTQTHREDYNSTLRVVSALPIQHQDWMSGKEFKCKVNNKDLPAPIERTISKPKGSVRAPQVYVLPPPEEEMTKKQVTLTCMVTDFMPEDIYVEWTNNGKTELNYKNTEPVLDSDGSYFMYSKLRVEKKNWVERNSYSCSVVHEGLHNHHTTKSFSRTPGK
light: MRLLAQLLGLLMLWVPGSSGDIQMTQSPASLSASVGETVTITCRASENIYSYLAWYQQKQGKSPQLLVYNAKTLAEGVPSRFSGSGSGTQFSLKINSLQPEDFGSYYCQHHYGTPYTFGSGTKLEIKRADAAPTVSIFPPSSEQLTSGGASVVCFLNNFYPKDINVKWKIDGSERQNGVLNSWTDQDSKDSTYSMSSTLTLTKDEYERHNSYTCEATHKTSTSPIVKSFNRNEC
B5: the “EC50 values against TE14 cells” value in the experiment on TE14 cells is “excellent EC50 values”. Further, the “EC50 values against DU145 cells” value with DU145 cells is given as “excellent EC50 values”.
